Test results as given in US20060234940.

Columns and labels:
[1] = target: Glucagon (UniProt P01275)
[2] = target: His^1-Ser^2-NPY (UniProt P01303)
[3] = target: [Gly]^2-glucagon (UniProt P01275)
[4] = system: peptides of the growth hormone releasing factor (GRF) family

Chain of [Gly]^2-glucagon (P01275 whole entry, looked up): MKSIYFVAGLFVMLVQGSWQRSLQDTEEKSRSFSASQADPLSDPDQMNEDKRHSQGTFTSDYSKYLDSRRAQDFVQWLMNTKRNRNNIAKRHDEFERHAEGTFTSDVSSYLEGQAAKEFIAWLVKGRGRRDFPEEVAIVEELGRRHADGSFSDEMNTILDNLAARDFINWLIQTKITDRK
Chain of Glucagon (P01275 53-81): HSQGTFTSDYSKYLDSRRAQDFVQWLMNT

| Substance | Km [M] of DP IV-catalyzed hydrolysis [1] | Km [M] of DP IV-catalyzed hydrolysis [2] | Km [M] of DP IV-catalyzed hydrolysis [3] | hydrolysis (MALDI-TOF MS, capillary zone electrophoresis) [4] |
| --- | --- | --- | --- | --- |
| DP IV | 3.8e-06 M | 6.8e-05 M | 2.2e-05 M |  |
| recombinant human DP IV, wild type |  |  |  | All peptides were hydrolyzed by porcine DP IV, recombinant human DP IV or DP IV activity of the human serum |
